Measured values from US20210101937A1 (Bicycle, published 2021).
*1 amine or outer side, *2 acyl side, *3 side chain or, on linkers, in order; H or OH if unused. Bridges are numbered along the chain shown (N, C = ends). Roman numbers before positions name the chains, in order. Where no end group is shown, it is not given here. [ ]: non-standard residue; d: D form. The star is where a group is joined. TATA = O=C(CC[*:1])N1CN(C(=O)CC[*:2])CN(C(=O)CC[*:3])C1; 1Nal = N[C@@H](Cc1cccc2ccccc12)C(=O)O; Hyp = O=C(O)[C@@H]1C[C@@H](O)CN1; hArg = N=C(N)NCCCC[C@H](N)C(=O)O; tBuAla = CC(C)(C)C[C@H](N)C(=O)O; Cysteamide = C(CS[*:3])N[*:1]; Nle = CCCC[C@H](N)C(=O)O; Pent4ynoyl = C#CCCC(=O)*; Mpa = O=C(O)CCS

Biological target: CD137 (UniProt Q07011 24-255, limits assumed)
Sequence (Q07011 24-255 limits assumed): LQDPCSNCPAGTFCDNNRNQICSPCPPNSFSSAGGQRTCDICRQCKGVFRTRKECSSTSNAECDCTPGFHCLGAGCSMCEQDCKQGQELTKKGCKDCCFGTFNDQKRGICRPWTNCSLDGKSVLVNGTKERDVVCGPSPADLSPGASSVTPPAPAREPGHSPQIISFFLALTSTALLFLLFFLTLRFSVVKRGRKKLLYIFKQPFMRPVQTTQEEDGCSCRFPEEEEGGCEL
Experiment: cell-based or functional assay

Binder | Fold improvement in EC50 over BCY10000 on same plate [fold] | Fold improvement in Emax over BCY10000 on same plate [fold]
BCY12572 ([Ac]C[tBuAla]PE[dK(PYA)]PYCFADPY[Nle][Cysteamine]; reactive groups bonded to TATA scaffold; CP[1Nal][dD]CM[HArg]DWSTP[HyP]WC; Cys residues bonded to TATA scaffold) peptide 1: CPXDCMXDWSTPXWC peptide 2: CXPEKPYCFADPYX | 0.35 | 1.67
BCY12573 (linker I:1-I:5-I:15 via TATA; numbers in words are those of the source; also: two bicycles joined by Peg5 linker, linker at chain B 7 at chain B 14 to a chain's N-terminus via TATA) peptide 1: CP[1Nal][dD]CM[hArg]DWSTP[Hyp]WC peptide 2: [Mpa][tBuAla]PE[dK](Pent4ynoyl)PYCFADPY[Nle]C | 0.74 | 1.34
BCY12574 (linker I:1-I:5-I:15 via TATA; numbers in words are those of the source; also: two bicycles joined by Peg5 linker, linker at chain B 7 to a chain's N/C-terminus via TATA) peptide 1: CP[1Nal][dD]CM[hArg]DWSTP[Hyp]WC peptide 2: [Mpa][tBuAla]PE[dK](Pent4ynoyl)PYCFADPY[Nle]-Cysteamide | 0.22 | 0.77
BCY12576 (Ac-C[tBuAla]PE[D-Lys(PYA)]PYCFADPY[Nle]CA; Cys residues bonded to TATA scaffold; [3-mercaptopropionic acid]P[1Nal][dK]CM[HArg]DWSTP[HyP]WC; reactive groups bonded to TATA scaffold) peptide 1: XXKCMXDWSTPXWC peptide 2: CXPEXPYCFADPYXCA | 0.23 | 1.45
BCY12577 (Ac-C[tBuAla]PE[D-Lys(PYA)]PYCFADPY[Nle]CA; Cys residues bonded to TATA scaffold; [Ac]CP[1Nal][dK]CM[HArg]DWSTP[HyP]W[Cysteamine]; reactive groups bonded to TATA scaffold) peptide 1: CPXKCMXDWSTPXX peptide 2: CXPEXPYCFADPYXCA | 0.25 | 1.06
BCY12578 (Ac-C[tBuAla]PE[D-Lys(PYA)]PYCFADPY[Nle]CA; Cys residues bonded to TATA scaffold; [3-mercaptopropionic acid]P[1Nal][dK]CM[HArg]DWSTP[HyP]W[Cysteamine]; reactive groups bonded to TATA scaffold) peptide 1: XXKCMXDWSTPXX peptide 2: CXPEXPYCFADPYXCA | 0.05 | 0.93
BCY12579 (Ac-C[tBuAla]PE[D-Lys(PYA)]PYCFADPY[Nle]CA; Cys residues bonded to TATA scaffold; [Ac]CP[1Nal][dK]CM[HArg]HWSTP[HyP]WC; Cys residues bonded to TATA scaffold) peptide 1: CPXKCMXHWSTPXWC peptide 2: CXPEXPYCFADPYXCA | 0.29 | 1.07
BCY12580 (Ac-C[tBuAla]PE[D-Lys(PYA)]PYCFADPY[Nle]CA; Cys residues bonded to TATA scaffold; [Ac]CP[1Nal][dK]CM[HArg]EWSTP[HyP]WC; Cys residues bonded to TATA scaffold) peptide 1: CPXKCMXEWSTPXWC peptide 2: CXPEXPYCFADPYXCA | 0.64 | 0.97
BCY12581 (linker I:1-I:5-I:15, II:1-II:8-II:15 via TATA; not fully specified (bridges); also: chain 1 N-terminus joined to chain 2 dLys(PYA) by Peg5 linker (heterotandem complex)) peptide 1: CP[1Nal][dE]CM[hArg]DWSTP[Hyp]WC peptide 2: Ac-C[tBuAla]PE[dK](Pent4ynoyl)PYCFADPY[Nle]CA | 1.35 | 0.88
BCY12582 (linker I:1-I:5-I:15, II:1-II:8-II:15 via TATA; not fully specified (bridges); also: chain 1 N-terminus joined to chain 2 dLys(PYA) by Peg5 linker (heterotandem complex)) peptide 1: CP[1Nal][dA]CM[hArg]DWSTP[Hyp]WC peptide 2: Ac-C[tBuAla]PE[dK](Pent4ynoyl)PYCFADPY[Nle]CA | 1.69 | 1.32
BCY11616 (Ac-ACIEE(D-K)(PYA)QYCFADPY(Nle)CA; Cys residues bonded to TATA scaffold; CP[1Nal][dD]CM[HArg]DWSTP[HyP]WC; Cys residues bonded to TATA scaffold) peptide 1: CPXDCMXDWSTPXWC peptide 2: ACIEEKQYCFADPYXCA | 0.21 | 1.22
